# Reference: publication doi:10.1101/2021.11.05.467508v1
# Substrate: NC(=O)c1ccc[n+]([C@@H]2O[C@H](COP(=O)(O)OP(=O)(O)OC[C@H]3O[C@@H](n4cnc5c(N)ncnc54)[C@H](O)[C@@H]3O)[C@@H](O)[C@H]2O)c1
# Test: dot blot saturation kinetics, Michaelis-Menten fit
# Assay type: biochemical, Oryza sativa
# Conditions: H3K9Ac of histone H3 (constant), 0-600 μM NAD+, pH 7.5, 37 °C
Protein,Km [µM],kcat [s⁻¹]
OsSRT1_cc (CC) (Oryza sativa Indica Group) (protein) KHLVVFTGAGISTSSGIPDFRGPKGVWTLQRSGKGVPGASLPFHRAVPTLTHMALVELEKTGRLKFVISQNVDSLHLRSGLPREKLAELHGNSFKEICPSCKKEYLRDFEIETIGLKDTPRRCSDKNCGARLKDTVLDWEDALPPEEMDAAKEQCQTADLVLCLGTSLQITPACNMPLLSLKNGGRVAIVNLQATPKDKKASLVIHGLVDK,256 ± 21,0.03432 ± 0.00127
ΔN1 (Oryza sativa Indica Group) (protein) KHLVVFTGAGISTSSGIPDFRGPKGVWTLQRSGKGVPGASLPFHRAVPTLTHMALVELEKTGRLKFVISQNVDSLHLRSGLPREKLAELHGNSFKEICPSCKKEYLRDFEIETIGLKDTPRRCSDKNCGARLKDTVLDWEDALPPEEMDAAKEQCQTADLVLCLGTSLQITPACNMPLLSLKNGGRVAIVNLQATPKDKKASLVIHGLVDKVIAGVMYMMNLRIPPYIRTDFVQISLRNSVKKKCVRWTLRVTSIHGLRAPLPFLRSVEVSFPERPDMKPVVLKEQPFSLQRETSMNRPFVMLLTFNFSDGCGCSSSSIEWPVDFLKQKDSFVRDRSLVLQELQHAAEHRSRAGQHAILEREGVPRAETSIHALVTNIVRYDTEDSKAAVPMATWMNSNGSLSKRHMDAIGCNPASSKKQKLVATRHRRKGLNPATQKV,175 ± 27,0.0617 ± 0.00367
ΔC1 (Oryza sativa Indica Group) (protein) MSLGYAEKLSYREDVGNVGMPEIFDSPELLHKKIEELAVMVRESKHLVVFTGAGISTSSGIPDFRGPKGVWTLQRSGKGVPGASLPFHRAVPTLTHMALVELEKTGRLKFVISQNVDSLHLRSGLPREKLAELHGNSFKEICPSCKKEYLRDFEIETIGLKDTPRRCSDKNCGARLKDTVLDWEDALPPEEMDAAKEQCQTADLVLCLGTSLQITPACNMPLLSLKNGGRVAIVNLQATPKDKKASLVIHGLVDK,299 ± 43,0.02 ± 0.0014
